US20260116958A1 (University of California, published 2026)
Positions count from the first letter of the chain named.

B1: Hu6G9.1 IgG (antibody, V domains shown)
VH: QVQLVQSGAEVKKPGASVKMSCKASGYTFTSYWMHWVRQAPGQGLEWVGYINPSTGYTEYNQKFKDRATLTADKSTSTAYMELRSLRSDDTAVYYCARGGNYVDYWGQGTTLTVSS
VL: DIQMTQSPSTLSASVGERVTITCRASHGISSWLAWYQQKPGKAPKRLIYAVSTLQTGVPSRFSDSGSGTDLTLTINSLQPEDFATYYCQDLNSYPLSFGGGTKVEIKR
B2: hu6G6 IgG (antibody, V domains shown)
VH: QVQLVQSGAEVKKPGASVKLSCKASGFNIKDTYMHWVRQAPGQGLEWIGRIDPANGNTKYDPKFQGRATITADTSINTAYLELSRLRSDDTAVYYCASGPNYYGTTWFAYWGQGTTVTVSS
VL: EIVLTQSPSTLSASVGDRVTITCRASHGISNYLAWYQQKPGRAPKLLIYKASTLHIGVPSRFSGSGSGTEFALTISSLQPDDFSTYYCQQYNSYLPHTFGQGTRLEIKR
B3: Hu6G6.2 IgG (antibody, V domains shown)
VH: B2 VH with A54E, D73Y, T74K, T78R
VL: B2 VL
B4: 6G7.1 IgG (antibody, V domains shown)
VH: DVQLQESGPELVKPGASVKVSCKASDYSFTDYNIYWVKQSHGKSLEWIGYIDPYNGGTSYNQKFKGKATLTVDKSSSTAFMYLNSLTSEDSAVYYCALYGYDPDYIDYWGQGTTLTVSS
VL: QIVLTQSPAIMSASPGEKVTITCSASSSVSYLHWFQQKPGTSPKLWIYSTSNLASGVPARFSGSGSGTSYSLTISRMEAEDAATYYCQQRSSYPYTFGGGTKLEIKA
B5: Hu6G11.1 IgG (antibody, V domains shown)
VH: QVQLVQSGAEVAKPGASVKMSCKASGYTFTSYWMHWVRQAPGQGLEWIGYINPSTGYTEYNQKFKDRATLTADKSKSTAYMELSSLRSEDTAVYYCARGYFSFAYWGQGTLVTVSS
VL: DIVMTQSPSSLSASVRDRVTITCQASHDIKNFLNWFQQKPGKAPKLLVYDASYLQVGVPSRFSASGYGTEFTLTISSLQPEDFATYYCQQANSFPRTFGQGTKVEIKR
B6: hu6G11 IgG (antibody, V domains shown)
VH: B5 VH with K76T
VL: B5 VL with Y53N
B7: Hu6G11.2 IgG (antibody, V domains shown)
VH: B5 VH
VL: B5 VL with Y53H
B8: 6G9 IgG (antibody, V domains shown)
VH: EVQLQQSGDDLVKPGASVKMSCKASGYTFTSYWMHWVKQRPGQGLEWIGYINPSTGYTEYNQKFKDKATLTADKSSSTAYMQLSSLTSEDSAVYYCARGGNYVDYWGQGTTLTVSS
VL: EIVLTQSPAIMSASPGEKVTISCSASSSVSYMYWYQQKPGSSPKPWIYRTSNLASGVPARFSGSGSGTSYSLTISSMEAEDAATYYCQQWSSNPYTFGGGTKLEIKR
B9: Hu6G7.1 IgG (antibody, V domains shown)
VH: QVQLVQSGAEVKKPGASVKVSCKASDYSFTDYNIYWVRQTPGQGLEWIGYIDPYNGGTSYNQKFKGRATLTVDKSISTAYMELSRLRSDDTAVYYCALYGYDPDYIDYWGQGTTLTVSS
VL: DIVLTQSPASMAVSPGQRVTITCSASSSVSYLHWFQQKPGQSPKLWIYSTSNLASGVPARFSGSGSGTDYTLTINPMEAEDTATYYCQQRSSYPYTFGQGTKLEIKR
B10: 6G10 IgG (antibody, V domains shown)
VH: EVQLQQSGPELVKPGASVKISCKASGYSFTGYFMHWVKQSHVKSLEWIGRINPYNGDIIYNQNFKDKASLTVDKSSSTAYMELHSLTSEDSAVYYCASLFGLYYFDYWGQGTTLTVSS
VL: EIVLTQSPAIMSASPGEKVTMTCSASSSVSYMHWYQQKSGTSPKRWIYDTSKLASGVPARFSGSGSGTSYSLTISSMEAEDAATYYCQQWSSNPLTFGAGTKLELKR
B11: hu6G9B10 scFv (scFv)
scFv: QVQLVQSGAEVKKPGASVKMSCKASGYTFTSYWMHWVRQAPGQGLEWIGYINPSTGYTEYNQKFKDRATLTADKSTSTAYMELRSLRSDDTAVYYCARGGNYVDYWGQGTTLTVSSVDLKSGGSTSDSGKPGSGEGSSGSARDIQMTQSPSTLSASVGERVTITCRASQDISSWLAWYQQKPGKAPKRLIYAVSTLQTGVPSRFSGSGSGTDLTLTINSLQPEDFATYYCQDLNSYPLTFGGGTKVEVK
B12: Hu6G10 scFv (scFv, V domains shown)
VH: QVQLVQSGAEVKKPGATVKISCKASGYSFTGYFMHWVRQAPGKGLEWIGRINPYNGDIIYNQNFKDRATLTVDKSTSTAYMELSSLRSEDTAVYYCASLFGLYYFDYWGQGTTLTVSS
VL: DVVMTQSPSSVSASVGDRVTITCRASQRISNHLNWYQQKPGKAPKRLIYAASSLESGVPSRFSGSGSGTEFTLTISSLQPEDFATYFCLQHNSYPYTFGQGTKVEIKR
B13: Hu6G11.3 scFv (scFv, V domains shown)
VH: B5 VH with K76T
VL: EIVLTQSPSTLSASIGDRVTITCRASEGIYHWLAWYQQKPGKAPKLLIYKASSLASGAPSRFSGSGSGTDFSLTISSLQPEDSATYFCQQAHSFPPTFGGGTKVDIKR
B14: Hu6G11.1 scFv (scFv, V domains shown)
VH: B5 VH
VL: B5 VL
B15: Hu6G11.2 scFv (scFv, V domains shown)
VH: B5 VH
VL: B5 VL with Y53H

What follows are binders tested against T1, active BoNT/G holotoxin (Clostridium botulinum, UniProt Q60393 2-1297) (assay: KinExA, IgG).
T1 sequence: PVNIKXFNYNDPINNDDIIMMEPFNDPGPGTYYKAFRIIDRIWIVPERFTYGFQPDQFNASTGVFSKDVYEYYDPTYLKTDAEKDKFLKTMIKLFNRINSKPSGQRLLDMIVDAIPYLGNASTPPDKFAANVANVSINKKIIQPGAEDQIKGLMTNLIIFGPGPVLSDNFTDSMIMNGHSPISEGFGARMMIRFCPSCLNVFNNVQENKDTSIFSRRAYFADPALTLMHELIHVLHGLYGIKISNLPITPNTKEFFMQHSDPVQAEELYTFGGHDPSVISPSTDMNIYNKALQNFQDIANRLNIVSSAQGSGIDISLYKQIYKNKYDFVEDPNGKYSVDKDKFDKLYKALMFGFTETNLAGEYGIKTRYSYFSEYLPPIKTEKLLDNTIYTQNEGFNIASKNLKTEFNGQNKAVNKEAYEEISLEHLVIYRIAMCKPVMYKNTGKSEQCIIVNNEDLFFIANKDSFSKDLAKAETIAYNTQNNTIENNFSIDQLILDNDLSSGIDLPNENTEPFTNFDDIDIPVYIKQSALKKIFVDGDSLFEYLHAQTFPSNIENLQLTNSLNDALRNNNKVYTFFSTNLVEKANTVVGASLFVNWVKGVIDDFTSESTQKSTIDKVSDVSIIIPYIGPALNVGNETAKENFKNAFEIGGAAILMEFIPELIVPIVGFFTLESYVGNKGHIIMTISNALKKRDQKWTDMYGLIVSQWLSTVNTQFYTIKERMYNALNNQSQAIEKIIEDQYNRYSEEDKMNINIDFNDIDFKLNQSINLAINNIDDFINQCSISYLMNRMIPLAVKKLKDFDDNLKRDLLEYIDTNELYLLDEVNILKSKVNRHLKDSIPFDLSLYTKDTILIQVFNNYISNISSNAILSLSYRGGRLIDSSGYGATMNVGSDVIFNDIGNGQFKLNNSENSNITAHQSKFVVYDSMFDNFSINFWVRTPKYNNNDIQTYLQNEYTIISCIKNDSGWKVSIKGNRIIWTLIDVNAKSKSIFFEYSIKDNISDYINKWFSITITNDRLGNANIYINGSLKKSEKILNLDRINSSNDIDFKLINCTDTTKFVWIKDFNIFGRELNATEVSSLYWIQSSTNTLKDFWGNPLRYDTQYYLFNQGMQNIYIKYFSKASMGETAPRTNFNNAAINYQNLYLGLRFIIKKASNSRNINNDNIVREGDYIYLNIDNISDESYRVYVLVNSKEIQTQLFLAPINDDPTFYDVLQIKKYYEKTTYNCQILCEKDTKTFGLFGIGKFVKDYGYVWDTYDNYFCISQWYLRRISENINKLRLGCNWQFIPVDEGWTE

Binder | Kd
B1 | 0.0275 nM
B2 | 8.37 nM
B3 | 0.0422 nM
B4 | 0.0266 nM
B5 | 0.101 nM
B6 | 0.531 nM
B7 | 0.048 nM
B8 | 1.59 nM
B9 | 1.19 nM
B10 | 0.33 nM

The binders below were run against inactive BoNT/G (BoNT/Gi) (Clostridium botulinum) (UniProt Q60393) (assay: flow cytometry, scFv on yeast).

Binder | Kd | fold improvement in affinity over hu6G9 WT
B11 | 2.35 nM | 9 fold

What follows are binders tested against T2, inactive BoNT/G (BoNT/Gi) (Clostridium botulinum, UniProt Q60393 1-1297) (assay: FACS, scFv on yeast).
T2 sequence: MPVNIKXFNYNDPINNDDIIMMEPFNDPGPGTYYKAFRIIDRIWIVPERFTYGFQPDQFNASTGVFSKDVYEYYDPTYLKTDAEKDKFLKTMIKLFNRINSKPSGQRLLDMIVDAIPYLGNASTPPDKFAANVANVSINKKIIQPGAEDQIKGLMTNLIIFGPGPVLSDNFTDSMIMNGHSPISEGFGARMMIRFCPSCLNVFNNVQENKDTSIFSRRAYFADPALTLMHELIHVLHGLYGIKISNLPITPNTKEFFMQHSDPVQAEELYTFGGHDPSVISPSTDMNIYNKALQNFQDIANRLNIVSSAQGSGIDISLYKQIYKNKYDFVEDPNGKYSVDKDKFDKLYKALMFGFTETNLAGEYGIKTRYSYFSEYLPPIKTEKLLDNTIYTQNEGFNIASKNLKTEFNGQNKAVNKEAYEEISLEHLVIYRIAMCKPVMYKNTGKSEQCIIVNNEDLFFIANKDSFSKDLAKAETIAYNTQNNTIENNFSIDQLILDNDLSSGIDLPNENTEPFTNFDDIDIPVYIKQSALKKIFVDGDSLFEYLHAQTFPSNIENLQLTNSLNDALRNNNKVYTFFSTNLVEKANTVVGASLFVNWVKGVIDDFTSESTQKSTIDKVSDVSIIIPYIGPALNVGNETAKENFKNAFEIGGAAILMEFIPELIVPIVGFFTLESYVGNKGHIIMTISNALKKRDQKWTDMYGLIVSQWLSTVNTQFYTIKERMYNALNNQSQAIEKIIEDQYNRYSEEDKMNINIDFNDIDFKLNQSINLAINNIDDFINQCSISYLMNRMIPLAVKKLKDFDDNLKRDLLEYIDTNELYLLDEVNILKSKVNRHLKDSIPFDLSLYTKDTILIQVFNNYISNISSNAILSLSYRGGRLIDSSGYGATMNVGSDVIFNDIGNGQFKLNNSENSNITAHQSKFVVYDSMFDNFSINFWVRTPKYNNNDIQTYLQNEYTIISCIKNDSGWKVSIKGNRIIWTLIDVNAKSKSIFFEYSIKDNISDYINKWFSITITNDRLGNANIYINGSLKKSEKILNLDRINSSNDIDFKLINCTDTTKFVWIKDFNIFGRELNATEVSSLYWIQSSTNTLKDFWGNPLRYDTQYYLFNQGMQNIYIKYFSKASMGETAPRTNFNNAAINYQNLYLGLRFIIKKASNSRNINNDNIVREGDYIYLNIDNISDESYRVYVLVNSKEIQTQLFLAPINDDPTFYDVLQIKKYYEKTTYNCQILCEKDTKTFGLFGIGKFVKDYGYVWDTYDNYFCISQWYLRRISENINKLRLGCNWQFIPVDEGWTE

Binder | Kd
B12 | 0.52 nM
B13 | 0.32 nM
B14 | 0.32 nM
B15 | 0.56 nM
